Target: T1, 5T4 on NCI-H226 cells, NCI-H2030 cells and HCC827 cells (UniProt Q13641 32-420, limits assumed)
T1 construct: whole, on cells
T1 sequence (looked up): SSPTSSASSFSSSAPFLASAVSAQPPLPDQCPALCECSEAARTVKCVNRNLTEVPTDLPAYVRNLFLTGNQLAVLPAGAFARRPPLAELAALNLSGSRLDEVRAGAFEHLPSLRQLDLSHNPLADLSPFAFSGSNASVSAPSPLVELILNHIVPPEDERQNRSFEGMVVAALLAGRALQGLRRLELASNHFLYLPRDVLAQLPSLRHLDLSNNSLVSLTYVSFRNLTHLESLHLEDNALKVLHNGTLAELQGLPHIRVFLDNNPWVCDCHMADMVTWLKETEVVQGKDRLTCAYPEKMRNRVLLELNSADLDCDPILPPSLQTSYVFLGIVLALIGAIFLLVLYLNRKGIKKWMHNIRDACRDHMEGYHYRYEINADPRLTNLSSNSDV
Assay: flow cytometry on NCI-H226 cells, Alexa Fluor 647 anti-human IgG Fc secondary antibody, MFI
Description: NCI-H226 cells, NCI-H2030 cells or HCC827 cells were plated in a 96-well plate at a density of 2×10⁵ cells/well. Serially diluted purified anti-5T4 antibody 32G1 or the positive control PF06263507 analog-SI (maximum concentration: 20 μg/mL, 2-fold dilutions, 12 gradients) were added to each well and were incubated at 4° C. for 30 minutes. Then, after one wash with PBS, the cells were incubated with the secondary antibody Alexa Fluor® 647 anti human IgG Fcγ (Jackson ImmunoResearch Laboratories, Inc., Cat #: 109-606-170) at 4° C. for 15 minutes before flow cytometry analysis.
The cells were collected, and the mean fluorescence intensity (MFI) was determined.

binding result: binds
B1: PF06263507 analog-SI (antibody, V domains shown)
VH: EVQLVESGGGLVQPGGSLRLSCAASGYTFTNFGMNWVRQAPGKGLEWVAWINTNTGEPRYAEEFKGRFTISRDNAKNSLYLQMNSLRAEDTAVYYCARDWDGAYFFDYWGQGTLVTVSS
VL: DIQMTQSPSSLSASVGDRVTITCKASQSVSNDVAWYQQKPGKAPKLLIYFATNRYTGVPSRFSGSGYGTDFTLTISSLQPEDFATYYCQQDYSSPWTFGQGTKVEIK
notes: PF06263507 is a humanized IgG1 monoclonal antibody targeting 5T4; also called positive control PF06263507 analog-SI

Reference: patent US20260241018A1 (BIOCYTOGEN PHARMACEUTICALS BEIJING, published 2026)
